# Test system: O=CC(O)COP(=O)(O)O
# Assay: Michaelis-Menten kinetics of purified enzyme (Km), coupled alpha-GDH/NADH assay
# Assay type: biochemical, Giardia duodenalis
substance,measurement,value
Giardia lamblia triosephosphate isomerase (GlTIM Tmut) (Giardia duodenalis; C202A/C222A/C228A),Km,1200 ± 90 µM
same,kcat/Km,1.92e+06 M⁻¹ s⁻¹

# — paper PMC6586891, “On the molecular and cellular effects of omeprazole to further support its effectiveness as an antigiardial drug” (Scientific Reports, 2019)
